Assay results reported in patent US20230190900 (published 2023).

Experiments:
EGFRvIII (CHO cells) = EGFRvIII (CHO cells) (human); assay: FACS, CHO cells 37C
murine FcγRI = biological target: T1, murine FcγRI (mouse, UniProt P26151); assay: SPR
T1 chain: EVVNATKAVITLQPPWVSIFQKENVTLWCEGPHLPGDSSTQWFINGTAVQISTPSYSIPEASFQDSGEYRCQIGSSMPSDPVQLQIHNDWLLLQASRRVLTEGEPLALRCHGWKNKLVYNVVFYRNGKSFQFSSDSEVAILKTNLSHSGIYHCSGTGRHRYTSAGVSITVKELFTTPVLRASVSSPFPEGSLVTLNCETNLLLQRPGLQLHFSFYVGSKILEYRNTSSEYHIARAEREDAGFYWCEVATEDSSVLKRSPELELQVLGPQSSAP

murine FcγRIIb = biological target: T2, murine FcγRIIb (mouse, UniProt P08101); assay: SPR
T2 chain: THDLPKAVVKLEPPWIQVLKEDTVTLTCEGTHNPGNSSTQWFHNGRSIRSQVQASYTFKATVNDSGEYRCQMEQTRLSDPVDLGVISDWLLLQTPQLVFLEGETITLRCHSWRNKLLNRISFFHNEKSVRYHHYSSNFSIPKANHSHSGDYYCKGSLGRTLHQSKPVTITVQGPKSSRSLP

human FcγRI (CD64) = biological target: T3, human FcγRI (CD64) (human, UniProt P12314); assay: SPR
T3 chain: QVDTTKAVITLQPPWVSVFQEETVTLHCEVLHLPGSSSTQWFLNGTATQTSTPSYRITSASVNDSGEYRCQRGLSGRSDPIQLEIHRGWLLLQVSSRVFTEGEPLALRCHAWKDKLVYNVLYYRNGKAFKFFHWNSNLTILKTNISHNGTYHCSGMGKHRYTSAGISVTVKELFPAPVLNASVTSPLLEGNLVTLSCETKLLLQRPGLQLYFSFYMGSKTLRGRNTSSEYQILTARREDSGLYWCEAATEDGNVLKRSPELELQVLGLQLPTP

human FcγRIIc (CD32C) = biological target: T4, human FcγRIIc (CD32C) (human, UniProt P31995); assay: SPR
T4 chain: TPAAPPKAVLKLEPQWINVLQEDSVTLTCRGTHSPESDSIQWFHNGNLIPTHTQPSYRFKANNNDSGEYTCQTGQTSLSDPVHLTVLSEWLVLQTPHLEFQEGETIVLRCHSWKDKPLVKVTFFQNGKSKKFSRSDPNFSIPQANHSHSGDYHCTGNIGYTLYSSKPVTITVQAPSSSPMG

[1] = biological target: T5, cynomolgus FcγRIIa (CD32A) (cynomolgus); assay: SPR
T5 chain: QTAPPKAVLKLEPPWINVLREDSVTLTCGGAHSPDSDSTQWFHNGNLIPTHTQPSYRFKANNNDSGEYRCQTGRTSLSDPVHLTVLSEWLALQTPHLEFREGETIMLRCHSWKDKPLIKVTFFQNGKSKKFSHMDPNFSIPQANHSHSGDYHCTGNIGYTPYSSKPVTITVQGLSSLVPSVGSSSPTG

human FcRn = human FcRn (human, UniProt P55899); assay: SPR, pH 6.0
murine FcRn = biological target: T6, murine FcRn (mouse, UniProt Q61559); assay: SPR, pH 6.0
T6 chain 1: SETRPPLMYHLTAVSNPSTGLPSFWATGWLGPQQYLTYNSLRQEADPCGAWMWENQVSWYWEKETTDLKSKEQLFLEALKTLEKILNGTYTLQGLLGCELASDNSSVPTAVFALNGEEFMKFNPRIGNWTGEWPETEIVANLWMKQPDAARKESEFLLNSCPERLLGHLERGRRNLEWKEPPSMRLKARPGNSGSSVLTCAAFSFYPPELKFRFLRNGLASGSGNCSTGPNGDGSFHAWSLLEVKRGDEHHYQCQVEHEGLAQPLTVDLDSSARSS
T6 chain 2: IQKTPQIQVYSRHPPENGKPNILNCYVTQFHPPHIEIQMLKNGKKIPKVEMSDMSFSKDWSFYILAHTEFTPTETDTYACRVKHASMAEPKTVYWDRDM

human FcγRIIa (CD32A) = biological target: T7, human FcγRIIa (CD32A) (human, UniProt P12318); assay: SPR
T7 chain: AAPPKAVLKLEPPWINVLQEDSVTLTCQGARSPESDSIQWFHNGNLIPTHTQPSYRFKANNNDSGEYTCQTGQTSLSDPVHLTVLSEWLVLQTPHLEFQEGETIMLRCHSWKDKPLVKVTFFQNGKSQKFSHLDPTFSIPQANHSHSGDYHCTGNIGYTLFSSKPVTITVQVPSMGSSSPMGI

cynomolgus FcRn = biological target: T8, cynomolgus FcRn (cynomolgus, UniProt Q8SPV9); assay: SPR, pH 6.0
T8 chain 1: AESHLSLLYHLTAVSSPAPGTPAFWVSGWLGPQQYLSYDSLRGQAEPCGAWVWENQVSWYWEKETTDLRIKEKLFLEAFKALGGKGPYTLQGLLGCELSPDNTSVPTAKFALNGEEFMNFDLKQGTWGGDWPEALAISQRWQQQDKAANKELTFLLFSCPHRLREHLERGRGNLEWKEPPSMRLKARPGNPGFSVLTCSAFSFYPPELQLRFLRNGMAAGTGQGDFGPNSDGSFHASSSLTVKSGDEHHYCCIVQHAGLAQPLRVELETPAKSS
T8 chain 2: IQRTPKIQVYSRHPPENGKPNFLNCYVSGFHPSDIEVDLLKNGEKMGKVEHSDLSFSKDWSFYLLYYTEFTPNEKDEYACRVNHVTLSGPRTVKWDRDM

[2] = biological target: T9, human FcγRIIIb (NA1) CD16B (human, UniProt O75015); assay: SPR
T9 chain: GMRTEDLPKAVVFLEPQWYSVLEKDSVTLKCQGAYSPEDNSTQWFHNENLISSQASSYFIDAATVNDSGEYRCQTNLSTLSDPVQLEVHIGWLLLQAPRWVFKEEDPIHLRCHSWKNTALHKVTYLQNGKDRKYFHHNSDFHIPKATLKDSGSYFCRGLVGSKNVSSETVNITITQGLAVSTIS

murine FcγRIV (CD16-2) = biological target: T10, murine FcγRIV (CD16-2) (mouse, UniProt A0A0B4J1G0); assay: SPR
T10 chain: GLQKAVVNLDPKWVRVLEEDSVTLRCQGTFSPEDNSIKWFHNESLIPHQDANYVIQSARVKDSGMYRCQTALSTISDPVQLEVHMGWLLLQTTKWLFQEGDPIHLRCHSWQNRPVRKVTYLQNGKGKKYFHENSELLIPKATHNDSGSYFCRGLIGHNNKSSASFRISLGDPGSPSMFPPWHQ

human FcγRIIb (CD32B) = biological target: T11, human FcγRIIb (CD32B) (human, UniProt P31994); assay: SPR
T11 chain: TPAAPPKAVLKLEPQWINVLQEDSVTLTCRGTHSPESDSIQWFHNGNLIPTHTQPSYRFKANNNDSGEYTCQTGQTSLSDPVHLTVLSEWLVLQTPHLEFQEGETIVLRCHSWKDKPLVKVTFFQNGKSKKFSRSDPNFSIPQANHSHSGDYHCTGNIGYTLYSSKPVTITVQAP

murine FcγRIII = biological target: T12, murine FcγRIII (mouse, UniProt P08508); assay: SPR
T12 chain: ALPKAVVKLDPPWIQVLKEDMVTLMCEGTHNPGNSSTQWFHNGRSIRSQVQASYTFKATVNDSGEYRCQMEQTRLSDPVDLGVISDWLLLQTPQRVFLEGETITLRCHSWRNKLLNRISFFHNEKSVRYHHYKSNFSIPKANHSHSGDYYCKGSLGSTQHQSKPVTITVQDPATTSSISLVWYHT

B1: Tandem diabody EGFR arm (antibody, V domains shown)
VH: QVQLQESGPGLVKPSETLSLTCTVSGGSVSSGSYYWSWIRQPPGKGLEWIGYIYYSGSTNYNPSLKSRVTISVDTSKNQFSLKLSSVTAADTAVYYCARNPISIPAFDIWGQGTMVTVSS
VL: QPVLTQPPSVSVAPGKTARITCGGNNIGSKSVHWYQQKPGQAPVLVIYYDSDRPSGIPERFSGSNSGNTATLTISRVEAGDEADYYCQVWDTSSDHVLFGGGTKLTVL
0.5 nM: Kd (EGFRvIII (CHO cells))

B2: EGFR/CD16A tandem diabody (full) (antibody)
chain 1: QVQLQESGPGLVKPSETLSLTCTVSGGSVSSGSYYWSWIRQPPGKGLEWIGYIYYSGSTNYNPSLKSRVTISVDTSKNQFSLKLSSVTAADTAVYYCARNPISIPAFDIWGQGTMVTVSSGGSGGSGGSSYVLTQPSSVSVAPGQTATISCGGHNIGSKNVHWYQQRPGQSPVLVIYQDNKRPSGIPERFSGSNSGNTATLTISGTQAMDEADYYCQVWDNYSVLFGGGTKLTVLGGSGGSQVQLVQSGAEVKKPGESLKVSCKASGYTFTSYYMHWVRQAPGQGLEWMGIINPSGGSTSYAQKFQGRVTMTRDTSTSTVYMELSSLRSEDTAVYYCARGSAYYYDFADYWGQGTLVTVSSGGSGGSGGSQPVLTQPPSVSVAPGKTARITCGGNNIGSKSVHWYQQKPGQAPVLVIYYDSDRPSGIPERFSGSNSGNTATLTISRVEAGDEADYYCQVWDTSSDHVLFGGGTKLTVLAAAGSHHHHHH
chain 2: QVQLQESGPGLVKPSETLSLTCTVSGGSVSSGSYYWSWIRQPPGKGLEWIGYIYYSGSTNYNPSLKSRVTISVDTSKNQFSLKLSSVTAADTAVYYCARNPISIPAFDIWGQGTMVTVSSGGSGGSGGSSYVLTQPSSVSVAPGQTATISCGGHNIGSKNVHWYQQRPGQSPVLVIYQDNKRPSGIPERFSGSNSGNTATLTISGTQAMDEADYYCQVWDNYSVLFGGGTKLTVLGGSGGSQVQLVQSGAEVKKPGESLKVSCKASGYTFTSYYMHWVRQAPGQGLEWMGIINPSGGSTSYAQKFQGRVTMTRDTSTSTVYMELSSLRSEDTAVYYCARGSAYYYDFADYWGQGTLVTVSSGGSGGSGGSQPVLTQPPSVSVAPGKTARITCGGNNIGSKSVHWYQQKPGQAPVLVIYYDSDRPSGIPERFSGSNSGNTATLTISRVEAGDEADYYCQVWDTSSDHVLFGGGTKLTVLAAAGSHHHHHH
no binding: binding result (murine FcγRI) | binding result (murine FcγRIIb) | binding result (human FcγRI (CD64)) | binding result (human FcγRIIc (CD32C)) | binding result [1] | binding result (human FcRn) | binding result (murine FcRn) | binding result (human FcγRIIa (CD32A)) | binding result (cynomolgus FcRn) | binding result [2] | binding result (murine FcγRIV (CD16-2)) | binding result (human FcγRIIb (CD32B)) | binding result (murine FcγRIII)
